Laboratory results from article doi:10.1101/2023.02.23.529712.
No end group written: not given here.

Biological target: recombinant rat arrestin-2 (rat), P29066
Assay: MST + fluorescence polarisation

Chain of recombinant rat arrestin-2 (rat), P29066 (P29066 whole entry): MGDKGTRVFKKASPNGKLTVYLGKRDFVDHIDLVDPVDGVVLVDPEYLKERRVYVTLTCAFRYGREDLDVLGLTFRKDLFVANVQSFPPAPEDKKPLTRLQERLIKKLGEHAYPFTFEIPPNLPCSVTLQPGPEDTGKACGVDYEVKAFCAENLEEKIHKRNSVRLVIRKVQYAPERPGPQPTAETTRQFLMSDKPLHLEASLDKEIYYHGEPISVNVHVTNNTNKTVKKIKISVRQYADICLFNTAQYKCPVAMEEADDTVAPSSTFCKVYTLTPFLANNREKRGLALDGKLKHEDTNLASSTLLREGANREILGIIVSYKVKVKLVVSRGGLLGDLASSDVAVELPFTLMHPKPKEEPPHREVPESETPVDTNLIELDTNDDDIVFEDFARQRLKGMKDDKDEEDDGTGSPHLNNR

Kd: 200 µM
B1: phosphomimetic GHSR C-terminus, Q92847 339-366 (domain or fragment)
chain: GFEPFSQRKLEELKDESSRAWTEEEINE
modifications: not fully specified
